Columns and labels:
cross-linking = target: the molecule itself; experiment: cross-linking
AUC = target: the molecule itself; experiment: AUC

Row | Protein | binding result (cross-linking) | stoichiometry N (AUC)
1 | human DJ-1 C106S, recombinant, tag-cleaved (natural protein) GSHMASKRALVILAKGAEEMETVIPVDVMRRAGIKVTVAGLAGKDPVQCSRDVVICPDASLEDAKKEGPYDVVVLPGGNLGAQNLSESAAVKEILKEQENRKGLIAAISAGPTALLAHEIGFGSKVTTHPLAKDKMMNGGHYTYSENRVEKDGLILTSRGPGTSFEFALAIVEALNGKEVAAQVKAPLVLKD | binds | –
2 | human DJ-1 E18D, recombinant, tag-cleaved (natural protein, uniformly 15N-labelled in the NMR experiment; fully reduced) GSHMASKRALVILAKGAEEMDTVIPVDVMRRAGIKVTVAGLAGKDPVQCSRDVVICPDASLEDAKKEGPYDVVVLPGGNLGAQNLSESAAVKEILKEQENRKGLIAAICAGPTALLAHEIGFGSKVTTHPLAKDKMMNGGHYTYSENRVEKDGLILTSRGPGTSFEFALAIVEALNGKEVAAQVKAPLVLKD | – | 2
3 | human DJ-1 E18Q, recombinant, tag-cleaved (natural protein, unlabelled preparation fully reduced; the 15N-labelled preparation of the NMR experiment 43% oxidised (Cys106-SO2-)) GSHMASKRALVILAKGAEEMQTVIPVDVMRRAGIKVTVAGLAGKDPVQCSRDVVICPDASLEDAKKEGPYDVVVLPGGNLGAQNLSESAAVKEILKEQENRKGLIAAICAGPTALLAHEIGFGSKVTTHPLAKDKMMNGGHYTYSENRVEKDGLILTSRGPGTSFEFALAIVEALNGKEVAAQVKAPLVLKD | – | 2
